Assay [1] has as its target human FRα on cells (human) (UniProt P15328). Kind of assay: flow cytometry competition on H2110 cells; competitor: Mirvetuximab; first of two values. On the technique in general: In flow cytometry, cells or beads pass a laser one at a time.
The target is the same in assay [2]. Kind of assay: flow cytometry competition on H2110 cells; competitor: Farletuzumab (self); second of two values.
The target is the same in assay [3]. Kind of assay: flow cytometry competition on H2110 cells; competitor: v23924; first of two values.
The target is the same in assay [4]. Kind of assay: flow cytometry competition on H2110 cells; competitor: v23924; second of two values.
Assay [5] shares this target. Kind of assay: flow cytometry competition on H2110 cells; competitor: Farletuzumab (self); first of two values.
Assay [6] has the same target. Kind of assay: flow cytometry competition on H2110 cells; competitor: Mirvetuximab; second of two values.
For assay [7] the target is unchanged. Kind of assay: flow cytometry competition on H2110 cells; competitor: Mirvetuximab (self); first of two values.
Assay [8] shares this target. Kind of assay: flow cytometry competition on H2110 cells; competitor: Farletuzumab; first of two values.
Assay [9] has the same target. Kind of assay: flow cytometry competition on H2110 cells; competitor: Mirvetuximab (self); second of two values.
Assay [10] has the same target. Kind of assay: flow cytometry competition on H2110 cells; competitor: Farletuzumab; second of two values.

Chain of human FRα on cells (human) (P15328 25-234 limits assumed): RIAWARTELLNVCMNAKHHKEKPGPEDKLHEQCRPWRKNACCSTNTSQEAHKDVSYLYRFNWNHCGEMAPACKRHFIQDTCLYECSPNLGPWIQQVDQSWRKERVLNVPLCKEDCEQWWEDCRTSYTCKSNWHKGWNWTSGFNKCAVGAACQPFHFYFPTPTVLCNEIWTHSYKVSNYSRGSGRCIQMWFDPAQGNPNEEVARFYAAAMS

B1: farletuzumab (v31629) (antibody, part only; not given: constant regions, V domains shown, not shown: another chain or arm of the molecule)
VH: EVQLVESGGGVVQPGRSLRLSCSASGFTFSGYGLSWVRQAPGKGLEWVAMISSGGSYTYYADSVKGRFAISRDNAKNTLFLQMDSLRPEDTGVYFCARHGDDPAWFAYWGQGTPVTVSS
VL: DIQLTQSPSSLSASVGDRVTITCSVSSSISSNNLHWYQQKPGKAPKPWIYGTSNLASGVPSRFSGSGSGTDYTFTISSLQPEDIATYYCQQWSSYPYMYTFGQGTKVEIK
Regarding B1, the % Competition Binding was 91% in assay [1]; 100% in assay [2]; 99% in [3]; 72% in [4]; 98% in assay [5]; 75% in assay [6].

B2: mirvetuximab (v17716) (antibody, part only; not given: constant regions, V domains shown, not shown: another chain or arm of the molecule)
VH: QVQLVQSGAEVVKPGASVKISCKASGYTFTGYFMNWVKQSPGQSLEWIGRIHPYDGDTFYNQKFQGKATLTVDKSSNTAHMELLSLTSEDFAVYYCTRYDGSRAMDYWGQGTTVTVSS
VL: DIVLTQSPLSLAVSLGQPAIISCKASQSVSFAGTSLMHWYHQKPGQQPRLLIYRASNLEAGVPDRFSGSGSKTDFTLTISPVEAEDAATYYCQQSREYPYTFGGGTKLEIK
Turning to B2, the % Competition Binding in assay [7] was determined as 100%; in assay [3], 13%; in assay [8], 99%; in assay [4] it was 7%; in assay [9], 98%; in assay [10], 100%.

The record behind these values is US20240424125A1.
